Measured values taken from the Human Domainome abundance scans (Beltran et al. 2025).
± gives the uncertainty stated by the source.

B1: Homeobox protein cut-like 1, residues 548 to 629; numbered along this chain, P39880 (parent)
chain: GEEMDTAEIARQVKEQLIKHNIGQRIFGHYVLGLSQGSVSEILARPKPWNKLTVRGKEPFHKMKQFLSDEQNILALRSIQGR

Variants of: B1
Assay: abundance fitness (aPCA) (normalised: wild type 0, dead -1); higher = more abundant; growth selection in yeast, the domain comes from the species named
Settings: Homo sapiens
Variant GEEMDTAEIARQVKEQLIKHNIGQRIFGHYVLGLSQGSVSEILARPKPWNDLTVRGKEPFHKMKQFLSDEQNILALRSIQGR [K51D] has an abundance fitness of 0.054 ± 0.082. For GEEMDTAEIARQVKEQLIKHNIGQRIFGHYVLGLSQGSVSEILARPKPWNELTVRGKEPFHKMKQFLSDEQNILALRSIQGR [K51E], the abundance fitness was 0.063 ± 0.063. GEEMDTAEIARQVKEQLIKHNIGQRIFGHYVLGLSQGSVSEILARPKPWNFLTVRGKEPFHKMKQFLSDEQNILALRSIQGR [K51F] gave an abundance fitness of -0.098 ± 0.097. Variant GEEMDTAEIARQVKEQLIKHNIGQRIFGHYVLGLSQGSVSEILARPKYWNKLTVRGKEPFHKMKQFLSDEQNILALRSIQGR [P48Y] has an abundance fitness of -0.78 ± 0.12. Work on GEEMDTAEIARQVKEQLIKHNIGQRIFGHYVLGLSQGSVSEILARPKVWNKLTVRGKEPFHKMKQFLSDEQNILALRSIQGR [P48V] yielded an abundance fitness of -0.374 ± 0.032. With GEEMDTAEIARQVKEQLIKHNIGQRIFGHYVLGLSQGSVSEILARPKSWNKLTVRGKEPFHKMKQFLSDEQNILALRSIQGR [P48S] the abundance fitness was -0.168 ± 0.036. Work on GEEMDTAEIARQVKEQLIKHNIGQRIFGHYVLGLSQGSVSEILARPKRWNKLTVRGKEPFHKMKQFLSDEQNILALRSIQGR [P48R] yielded an abundance fitness of -0.475 ± 0.029. Variant GEEMDTAEIARQVKEQLIKHNIGQRIFGHYVLGLSQGSVSEILARPKWWNKLTVRGKEPFHKMKQFLSDEQNILALRSIQGR [P48W] has an abundance fitness of -0.325 ± 0.033. In the case of GEEMDTAEIARQVKEQLIKHNIGQRIFGHYVLGLSQGSVSEILARPKQWNKLTVRGKEPFHKMKQFLSDEQNILALRSIQGR [P48Q], the abundance fitness is reported as -0.247 ± 0.038. In the case of GEEMDTAEIARQVKEQLIKHNIGQRIFGHYVLGLSQGSVSEILARPKPWDKLTVRGKEPFHKMKQFLSDEQNILALRSIQGR [N50D], the abundance fitness is reported as -0.103 ± 0.12. For GEEMDTAEIARQVKEQLIKHNIGQRIFGHYVLGLSQGSVSEILARPKPWGKLTVRGKEPFHKMKQFLSDEQNILALRSIQGR [N50G], the abundance fitness was -0.129 ± 0.084. In the case of GEEMDTAEIARQVKEQLIKHNIGQRIFGHYVLGLSQGSVSEILARPKPWKKLTVRGKEPFHKMKQFLSDEQNILALRSIQGR [N50K], the abundance fitness is reported as -0.093 ± 0.076. Work on GEEMDTAEIARQVKEQLIKHNIGQRIFGHYVLGLSQGSVSEILARPKPWHKLTVRGKEPFHKMKQFLSDEQNILALRSIQGR [N50H] yielded an abundance fitness of -0.074 ± 0.098. GEEMDTAEIARQVKEQLIKHNIGQRIFGHYVLGLSQGSVSEILARPKPWMKLTVRGKEPFHKMKQFLSDEQNILALRSIQGR [N50M] showed an abundance fitness of -0.23 ± 0.11. In the case of GEEMDTAEIARQVKEQLIKHNIGQRIFGHYVLGLSQGSVSEILARPKPWPKLTVRGKEPFHKMKQFLSDEQNILALRSIQGR [N50P], the abundance fitness is reported as -0.003 ± 0.14. In the case of GEEMDTAEIARQVKEQLIKHNIGQRIFGHYVLGLSQGSVSEILARPKPWEKLTVRGKEPFHKMKQFLSDEQNILALRSIQGR [N50E], the abundance fitness is reported as -0.071 ± 0.2. With GEEMDTAEIARQVKEQLIKHNIGQRIFGHYVLGLSQGSVSEILARPKPWLKLTVRGKEPFHKMKQFLSDEQNILALRSIQGR [N50L] the abundance fitness was -0.424 ± 0.092. Variant GEEMDTAEIARQVKEQLIKHNIGQRIFGHYVLGLSQGSVSEILARPKPWQKLTVRGKEPFHKMKQFLSDEQNILALRSIQGR [N50Q] has an abundance fitness of -0.057 ± 0.13. GEEMDTAEIARQVKEQLIKHNIGQRIFGHYVLGLSQGSVSEILARPKPWWKLTVRGKEPFHKMKQFLSDEQNILALRSIQGR [N50W] gave an abundance fitness of -0.151 ± 0.085. Work on GEEMDTAEIARQVKEQLIKHNIGQRIFGHYVLGLSQGSVSEILARPKPWAKLTVRGKEPFHKMKQFLSDEQNILALRSIQGR [N50A] yielded an abundance fitness of -0.062 ± 0.072. For GEEMDTAEIARQVKEQLIKHNIGQRIFGHYVLGLSQGSVSEILARPKPWYKLTVRGKEPFHKMKQFLSDEQNILALRSIQGR [N50Y], the abundance fitness was -0.165 ± 0.13. For GEEMDTAEIARQVKEQLIKHNIGQRIFGHYVLGLSQGSVSEILARPKPWTKLTVRGKEPFHKMKQFLSDEQNILALRSIQGR [N50T], the abundance fitness was -0.16 ± 0.067. Work on GEEMDTAEIARQVKEQLIKHNIGQRIFGHYVLGLSQGSVSEILARPKPWFKLTVRGKEPFHKMKQFLSDEQNILALRSIQGR [N50F] yielded an abundance fitness of -0.265 ± 0.13. Work on GEEMDTAEIARQVKEQLIKHNIGQRIFGHYVLGLSQGSVSEILARPKPWVKLTVRGKEPFHKMKQFLSDEQNILALRSIQGR [N50V] yielded an abundance fitness of -0.309 ± 0.088. GEEMDTAEIARQVKEQLIKHNIGQRIFGHYVLGLSQGSVSEILARPKPWCKLTVRGKEPFHKMKQFLSDEQNILALRSIQGR [N50C] gave an abundance fitness of 0.064 ± 0.14. For GEEMDTAEIARQVKEQLIKHNIGQRIFGHYVLGLSQGSVSEILARPKPWRKLTVRGKEPFHKMKQFLSDEQNILALRSIQGR [N50R], the abundance fitness was -0.04 ± 0.066. In the case of GEEMDTAEIARQVKEQLIKHNIGQRIFGHYVLGLSQGSVSEILARPKPWSKLTVRGKEPFHKMKQFLSDEQNILALRSIQGR [N50S], the abundance fitness is reported as 0.073 ± 0.07. GEEMDTAEIARQVKEQLIKHNIGQRIFGHYVLGLSQGSVSEILARPKPSNKLTVRGKEPFHKMKQFLSDEQNILALRSIQGR [W49S] gave an abundance fitness of -0.477 ± 0.22. GEEMDTAEIARQVKEQLIKHNIGQRIFGHYVLGLSQGSVSEILARPKPANKLTVRGKEPFHKMKQFLSDEQNILALRSIQGR [W49A] showed an abundance fitness of -0.202 ± 0.14. For GEEMDTAEIARQVKEQLIKHNIGQRIFGHYVLGLSQGSVSEILARPKPVNKLTVRGKEPFHKMKQFLSDEQNILALRSIQGR [W49V], the abundance fitness was -0.529 ± 0.14. Work on GEEMDTAEIARQVKEQLIKHNIGQRIFGHYVLGLSQGSVSEILARPKPRNKLTVRGKEPFHKMKQFLSDEQNILALRSIQGR [W49R] yielded an abundance fitness of -0.574 ± 0.16. For GEEMDTAEIARQVKEQLIKHNIGQRIFGHYVLGLSQGSVSEILARPKPTNKLTVRGKEPFHKMKQFLSDEQNILALRSIQGR [W49T], the abundance fitness was -0.509 ± 0.31. For GEEMDTAEIARQVKEQLIKHNIGQRIFGHYVLGLSQGSVSEILARPKPENKLTVRGKEPFHKMKQFLSDEQNILALRSIQGR [W49E], the abundance fitness was -0.273 ± 0.26. With GEEMDTAEIARQVKEQLIKHNIGQRIFGHYVLGLSQGSVSEILARPKPLNKLTVRGKEPFHKMKQFLSDEQNILALRSIQGR [W49L] the abundance fitness was -0.506 ± 0.23.
